From US20150139990A1

Assays:
[1] = biological target: human CD81 on CD81-expressing cells (Jurkat E6.1, human PBMC, Ramos) (human) (UniProt P60033); assay: flow cytometry, Ramos cells, 1 µg/mL
[2] = biological target: human CD81 on CD81-expressing cells (Jurkat E6.1, human PBMC, Ramos) (human) (UniProt P60033); assay: flow cytometry, Jurkat cells, 1 µg/mL
[3] = biological target: human CD81 on CD81-expressing cells (Jurkat E6.1, human PBMC, Ramos) (human) (UniProt P60033); assay: flow cytometry, Ramos cells, 10 µg/mL
[4] = biological target: human CD81 on CD81-expressing cells (Jurkat E6.1, human PBMC, Ramos) (human) (UniProt P60033); assay: flow cytometry, Jurkat cells, 10 µg/mL
[5] = biological target: human CD81 on CD81-expressing cells (Jurkat E6.1, human PBMC, Ramos) (human) (UniProt P60033); assay: flow cytometry, Ramos cells, 0.1 µg/mL
[6] = biological target: human CD81 on CD81-expressing cells (Jurkat E6.1, human PBMC, Ramos) (human) (UniProt P60033); assay: flow cytometry, Jurkat cells, 0.1 µg/mL
[7] = biological target: human CD81 on CD81-expressing cells (Jurkat E6.1, human PBMC, Ramos) (human) (UniProt P60033); assay: flow cytometry, Ramos cells, 0.01 µg/mL
[8] = biological target: human CD81 on CD81-expressing cells (Jurkat E6.1, human PBMC, Ramos) (human) (UniProt P60033); assay: flow cytometry, Jurkat cells, 0.01 µg/mL
[9] = biological target: human CD81 on CD81-expressing cells (Jurkat E6.1, human PBMC, Ramos) (human) (UniProt P60033); assay: flow cytometry, human PBMC
[10] = biological target: human CD81 on CD81-expressing cells (Jurkat E6.1, human PBMC, Ramos) (human) (UniProt P60033); assay: flow cytometry, Jurkat E6.1 cells

Chain of human CD81 on CD81-expressing cells (Jurkat E6.1, human PBMC, Ramos) (human) (P60033 whole entry): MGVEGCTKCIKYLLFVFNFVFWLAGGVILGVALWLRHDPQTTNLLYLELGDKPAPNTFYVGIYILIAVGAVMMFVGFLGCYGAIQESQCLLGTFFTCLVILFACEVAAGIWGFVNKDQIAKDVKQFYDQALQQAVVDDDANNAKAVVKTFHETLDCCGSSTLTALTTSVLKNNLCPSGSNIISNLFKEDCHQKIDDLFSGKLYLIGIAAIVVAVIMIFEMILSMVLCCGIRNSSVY

Row | geometric mean FL2 [1] | geometric mean FL2 [2] | geometric mean FL2 [3] | geometric mean FL2 [4] | geometric mean FL2 [5] | geometric mean FL2 [6] | geometric mean FL2 [7] | geometric mean FL2 [8] | binding ratio to cells (%) [9] [%] | binding ratio to cells (%) [10] [%] | Substance
1 | 5 | 4 | 8 | 8 | 4 | 4 | 4 | 4 |  |  | control human IgG (AbD Serotec) (antibody)
2 |  |  |  |  |  |  |  |  | 1 | 1 | control human IgG4 (Acris) (antibody)
